Assay results taken from US7005504 (Genentech, dated 2006).
Where two headings read alike, the source gives them in different places.

Legend:
[1] = target: T1, recombinant human IL-8, (ser-IL-8)72 (human, UniProt P10145 28-99, In some assays the protein was iodinated (125I on tyrosine) or coated on a plate. The letters are unchanged.); test: inhibition of 125I-IL-8 binding to the IL-8 receptors on human neutrophils (Bound/Total against cold ligand in nM)
T1 construct: also called wild type human IL-8; wt IL-8
T1 sequence: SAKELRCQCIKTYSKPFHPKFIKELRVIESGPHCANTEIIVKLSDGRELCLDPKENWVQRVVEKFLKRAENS

[2] = target: T1, recombinant human IL-8, (ser-IL-8)72; test: 125I-IL-8 neutrophil competition; reference not named in the sentence (chimeric F(ab) by Table 4)
[3] = target: T1, recombinant human IL-8, (ser-IL-8)72; test: cell-based or functional assay
human monomeric IL-8 = human monomeric IL-8 (human); test: cell-based or functional assay
rabbit IL-8 [4] = target: T2, rabbit IL-8 (rabbit, UniProt P19874 23-101, limits assumed); test: cell-based or functional assay
T2 sequence (looked up): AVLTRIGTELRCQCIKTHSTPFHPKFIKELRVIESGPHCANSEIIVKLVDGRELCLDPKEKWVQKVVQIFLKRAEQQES

[5] = target: T1, recombinant human IL-8, (ser-IL-8)72; test: inhibition of 125I-IL-8 binding to the IL-8 receptors on human neutrophils (Bound/Total against cold ligand in nM); remark: listed apart in the source
[6] = target: T1, recombinant human IL-8, (ser-IL-8)72; test: 125I-IL-8 neutrophil competition, against F(ab)-1
rhesus IL-8 = target: T3, rhesus IL-8 (rhesus, UniProt P67813 23-101, limits assumed); test: cell-based or functional assay
T3 sequence (looked up): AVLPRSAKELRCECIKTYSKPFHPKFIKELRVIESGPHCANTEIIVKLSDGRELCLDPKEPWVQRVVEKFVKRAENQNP

[7] = target: T1, recombinant human IL-8, (ser-IL-8)72; test: cell-based or functional assay; remark: listed apart in the source
rabbit IL-8 [8] = target: T2, rabbit IL-8; test: cell-based or functional assay; remark: listed apart in the source
[9] = target: T1, recombinant human IL-8, (ser-IL-8)72; test: inhibition of 125I-IL-8 binding to IL-8 receptors on human neutrophils; the legend column has no head, the text calls the values of this figure IC50's

B1: humanized 6G425 F(ab)-1 (Fab, V domains shown)
VH: EVQLVESGGGLVQPGGSLRLSCAASGYSFSSHYMHWVRQAPGKGLEWVGYIDPSNGETTYNQKFKGRFTISRDNSKNTLYLQMNSLRAEDTAVYYCARGDYRYNGDWFFDVWGQGTLVTVSS
VL: DIQMTQSPSSLSASVGDRVTITCRSSQSLVHGIGNTYLHWYQQKPGKAPKLLIYKVSNRFSGVPSRFSGSGSGTDFTLTISSLQPEDFATYYCSQSTHVPLTFGQGTKVEIKR
notes: Fab with human kappa subgroup I light chain and human IgG1 subgroup III heavy chain of phagemid pEMX1; unaltered CDR swap; also called version 1; V1
- IC50 (read off the curve) [1]: ~20 nM
- fold reduction in binding affinity [2]: 5.5 fold

B2: 6G4V11N35A Fab (Fab, V domains shown)
VH: EVQLVQSGGGLVQPGGSLRLSCAASGYSFSSHYMHWVRQAPGKGLEWVGYIDPSNGETTYNQKFKGRFTLSRDNSKNTAYLQMNSLRAEDTAVYYCARGDYRYNGDWFFDVWGQGTLVTVSS
VL: DIQMTQSPSSLSASVGDRVTITCRSSQSLVHGIGATYLHWYQQKPGKAPKLLIYKVSNRFSGVPSRFSGSGSGTDFTLTISSLQPEDFATYYCSQSTHVPLTFGQGTKVEIKR
notes: also called 6G4.2.5V11N35A Fab; Fab control
- IC50, PMN chemotaxis [3]: 0.8 nM
- average IC50, neutrophil chemotaxis [3]: 2.7 nM
- average IC50, neutrophil chemotaxis (human monomeric IL-8): 1 nM
- average IC50, neutrophil chemotaxis (rabbit IL-8 [4]): 5 nM
- IC50 (read off the curve) [5]: ~1 nM

B3: 6G4V11N35E Fab (Fab, V domains shown)
VH: EVQLVQSGGGLVQPGGSLRLSCAASGYSFSSHYMHWVRQAPGKGLEWVGYIDPSNGETTYNQKFKGRFTLSRDNSKNTAYLQMNSLRAEDTAVYYCARGDYRYNGDWFFDVWGQGTLVTVSS
VL: DIQMTQSPSSLSASVGDRVTITCRSSQSLVHGIGETYLHWYQQKPGKAPKLLIYKVSNRFSGVPSRFSGSGSGTDFTLTISSLQPEDFATYYCSQSTHVPLTFGQGTKVEIKR
- IC50, neutrophil chemotaxis [3]: ~1.2 nM

B4: full length 6G4V11N35A IgG1 (antibody, V domains shown, not shown: a dimerising Fc or GST)
VH: EVQLVQSGGGLVQPGGSLRLSCAASGYSFSSHYMHWVRQAPGKGLEWVGYIDPSNGETTYNQKFKGRFTLSRDNSKNTAYLQMNSLRAEDTAVYYCARGDYRYNGDWFFDVWGQGTLVTVSS
VL: DIQMTQSPSSLSASVGDRVTITCRSSQSLVHGIGATYLHWYQQKPGKAPKLLIYKVSNRFSGVPSRFSGSGSGTDFTLTISSLQPEDFATYYCSQSTHVPLTFGQGTKVEIKR
- IC50, neutrophil chemotaxis [3]: 4 nM
- IC50, neutrophil chemotaxis (rabbit IL-8 [4]): 4 nM

B5: full length 6G4V11N35E IgG1 (antibody, V domains shown, not shown: a dimerising Fc or GST)
VH: EVQLVQSGGGLVQPGGSLRLSCAASGYSFSSHYMHWVRQAPGKGLEWVGYIDPSNGETTYNQKFKGRFTLSRDNSKNTAYLQMNSLRAEDTAVYYCARGDYRYNGDWFFDVWGQGTLVTVSS
VL: DIQMTQSPSSLSASVGDRVTITCRSSQSLVHGIGETYLHWYQQKPGKAPKLLIYKVSNRFSGVPSRFSGSGSGTDFTLTISSLQPEDFATYYCSQSTHVPLTFGQGTKVEIKR
- IC50, neutrophil chemotaxis [3]: 6 nM
- IC50, neutrophil chemotaxis (rabbit IL-8 [4]): 2 nM

B6: humanized 6G425 F(ab)-2 (Fab, V domains shown)
VH: EVQLVESGGGLVQPGGSLRLSCAASGYSFSSHYMHWVRQAPGKGLEWVGYIDPSNGETTYNQKFKGRATISRDNSKNTLYLQMNSLRAEDTAVYYCARGDYRYNGDWFFDVWGQGTLVTVSS
VL: DIQMTQSPSSLSASVGDRVTITCRSSQSLVHGIGNTYLHWYQQKPGKAPKLLIYKVSNRFSGVPSRFSGSGSGTDFTLTISSLQPEDFATYYCSQSTHVPLTFGQGTKVEIKR
notes: template F(ab)-1; also called version 2
- fold decrease in IL-8 binding [6]: < 2 fold

B7: humanized 6G425 F(ab)-3 (Fab, V domains shown)
VH: EVQLVESGGGLVQPGGSLRLSCAASGYSFSSHYMHWVRQAPGKGLEWVGYIDPSNGETTYNQKFKGRFTISVDNSKNTLYLQMNSLRAEDTAVYYCARGDYRYNGDWFFDVWGQGTLVTVSS
VL: DIQMTQSPSSLSASVGDRVTITCRSSQSLVHGIGNTYLHWYQQKPGKAPKLLIYKVSNRFSGVPSRFSGSGSGTDFTLTISSLQPEDFATYYCSQSTHVPLTFGQGTKVEIKR
notes: template F(ab)-1; also called version 3
- fold decrease in IL-8 binding [6]: < 2 fold

B8: humanized 6G425 F(ab)-8 (Fab, V domains shown)
VH: EVQLVESGGGLVQPGGSLRLSCAASGYSFSSHYMHWVKQAPGKGLEWVGYIDPSNGETTYNQKFKGRFTLSRDNSKNTAYLQMNSLRAEDTAVYYCARGDYRYNGDWFFDVWGQGTLVTVSS
VL: DIQMTQSPSSLSASVGDRVTITCRSSQSLVHGIGNTYLHWYQQKPGKAPKLLIYKVSNRFSGVPSRFSGSGSGTDFTLTISSLQPEDFATYYCSQSTHVPLTFGQGTKVEIKR
- IC50, neutrophil chemotaxis [3]: 12 nM

B9: humanized 6G425 F(ab)-9 (humanized 6G4V11 Fab) (Fab, V domains shown)
VH: EVQLVQSGGGLVQPGGSLRLSCAASGYSFSSHYMHWVRQAPGKGLEWVGYIDPSNGETTYNQKFKGRFTLSRDNSKNTAYLQMNSLRAEDTAVYYCARGDYRYNGDWFFDVWGQGTLVTVSS
VL: DIQMTQSPSSLSASVGDRVTITCRSSQSLVHGIGNTYLHWYQQKPGKAPKLLIYKVSNRFSGVPSRFSGSGSGTDFTLTISSLQPEDFATYYCSQSTHVPLTFGQGTKVEIKR
- IC50, neutrophil chemotaxis (human monomeric IL-8): ~15 nM
- IC50, neutrophil chemotaxis (rhesus IL-8): ~22 nM

B10: 6G4V11N35A F(ab')2 leucine zipper (other)
light: DIQMTQSPSSLSASVGDRVTITCRSSQSLVHGIGATYLHWYQQKPGKAPKLLIYKVSNRFSGVPSRFSGSGSGTDFTLTISSLQPEDFATYYCSQSTHVPLTFGQGTKVEIKRTVAAPSVFIFPPSDEQLKSGTASVVCLLNNFYPREAKVQWKVDNALQSGNSQESVTEQDSKDSTYSLSSTLTLSKADYEKHKVYACEVTHQGLSSPVTKSFNRGEC
heavy: not shown
- average IC50, neutrophil chemotaxis [3]: 1.5 nM
- average IC50, neutrophil chemotaxis (human monomeric IL-8): 1 nM
- average IC50, neutrophil chemotaxis (rabbit IL-8 [4]): 4 nM

B11: 6G4V11N35A Fab' modified with 40 kD linear PEG-maleimide (Fab, V domains shown)
VH: EVQLVQSGGGLVQPGGSLRLSCAASGYSFSSHYMHWVRQAPGKGLEWVGYIDPSNGETTYNQKFKGRFTLSRDNSKNTAYLQMNSLRAEDTAVYYCARGDYRYNGDWFFDVWGQGTLVTVSS
VL: DIQMTQSPSSLSASVGDRVTITCRSSQSLVHGIGATYLHWYQQKPGKAPKLLIYKVSNRFSGVPSRFSGSGSGTDFTLTISSLQPEDFATYYCSQSTHVPLTFGQGTKVEIKR
modifications: 40 kD linear methoxy-PEG-maleimide on the free cysteine in the hinge region
- IC50, PMN chemotaxis [3]: 3.7 nM

B12: chimeric 5.12.14 Fab (Fab, V domains shown)
VH: EVQLVESGGGLVPPGGSLKLSCAASGFIFSSYGMSWVRQTPGKSLELVATINNNGDSTYYPDSVKGRFTISRDNAKNTLYLQMSSLKSEDTAMFYCARALISSATWFGYWGQGTLVTVSA
VL: DIVMTQSQKFMSTSVGDRVSVTCKASQNVGTNVAWYQQKPGQSPKALIYSSSYRYSGVPDRFTGSGSGTDFTLTISHVQSEDLADYFCQQYNIYPLTFGPGTKLELRR
- IC50 (4 parameter fit) of the inhibition of human IL-8 (100 nM) stimulated elastase release from human neutrophils [7]: 0.643 molar ratio Fab:IL-8 (x axis; 100 nM IL-8)

B13: chimeric 6G4.2.5 Fab (Fab, V domains shown)
VH: EIQLQQSGPELMKPGASVKISCKASGYSFSSHYMHWVKQSHGKSLEWIGYIDPSNGETTYNQKFKGKATLTVDTSSSTANVHLSSLTSDDSAVYFCARGDYRYNGDWFFDVWGAGTTVTVSS
VL: DIVMTQTPLSLPVSLGDQASISCRSSQSLVHGIGNTYLHWYLQKPGQSPKLLIYKVSNRFSGVPDRFSGSGSGTDFTLRISRVEAEDLGLYFCSQSTHVPLTFGAGTKLELKR
- IC50 (4 parameter fit) of the inhibition of human IL-8 (100 nM) stimulated elastase release from human neutrophils [7]: 0.635 molar ratio Fab:IL-8 (x axis; 100 nM IL-8)
- IC50 (4 parameter fit) of the inhibition of rabbit IL-8 (100 nM) stimulated elastase release from human neutrophils (absorbance 405 nM) (rabbit IL-8 [8]): 1.04 molar ratio Fab:rIL-8 (x axis; 100 nM rIL-8)

B14: 6G4V11N35A F(ab')2 modified with a single 20 kD linear PEG molecule (other)
light: DIQMTQSPSSLSASVGDRVTITCRSSQSLVHGIGATYLHWYQQKPGKAPKLLIYKVSNRFSGVPSRFSGSGSGTDFTLTISSLQPEDFATYYCSQSTHVPLTFGQGTKVEIKRTVAAPSVFIFPPSDEQLKSGTASVVCLLNNFYPREAKVQWKVDNALQSGNSQESVTEQDSKDSTYSLSSTLTLSKADYEKHKVYACEVTHQGLSSPVTKSFNRGEC
heavy: not shown
modifications: may carry PEG on a lysine or the N-terminus; site not defined
notes: one 20 kD linear PEG-succinimide (M-SPA-20000) per F(ab')2, on a primary amine; also called single 20 kD linear PEG-modified F(ab')2; linear(1)20 KDa-(N)-(Fab')2
- IC50 [9]: 0.296 nM

B15: 6G4V11N35A F(ab')2 modified with a single 40 kD branched PEG molecule (other)
light: DIQMTQSPSSLSASVGDRVTITCRSSQSLVHGIGATYLHWYQQKPGKAPKLLIYKVSNRFSGVPSRFSGSGSGTDFTLTISSLQPEDFATYYCSQSTHVPLTFGQGTKVEIKRTVAAPSVFIFPPSDEQLKSGTASVVCLLNNFYPREAKVQWKVDNALQSGNSQESVTEQDSKDSTYSLSSTLTLSKADYEKHKVYACEVTHQGLSSPVTKSFNRGEC
heavy: not shown
modifications: may carry PEG on a lysine or the N-terminus; site not defined
notes: one 40 kD branched PEG-succinimide (PEG2-NHS-40 KDa) per F(ab')2, on a primary amine; also called single 40 kD branched PEG-modified F(ab')2; branched(1)40 KDa-(N)-(Fab')2
- IC50 [9]: 0.38 nM
